Target: T1, in vitro translated HA-tagged NEMO (UniProt Q9Y6K9 1-419)
T1 construct: Negative control in the pull-down; made in TNT reticulocyte lysate; also called HA-NEMO; not shown: HA tag
Assay: GST pull-down of in vitro translated protein, anti-HA blot
From the text: FIGS. 1a-1d: binding of CARMA1 SH3 domain to E-Syt2. GST pull-down assays show direct interaction between E-Syt2 and SH3 domains. Schematic representation of CARMA1 (a) and E-Syt2 (b) mutant constructs. (c) upper panel: pull-down assays of the interactions between CARMA1 SH3 domain (GST-SH3c), Vav SH3 domain (GST-SH3v) or GST and in vitro translated HA-tagged E-Syt2, or NEMO in TNT® reticulocytes lysate systems. Ten percent of the input TNT lysates was also run on the PAGE and immunoblot with anti-HA to determine the relative binding capacity. […] Jurkat T cells were incubated with Raji B cells and coated with medium alone or with SEE. At 10 minutes, cells were fixed and E-SYT2 localized by immunofluorescence and confocal microscopy, using anti-A-SYT2 antibody, as described in the experimental procedure. The corresponding Nomarski images are shown on the bottom panels. Scale Bars represent 1 μm. (d) ESYT2 localized in microclusters Jurkat cells were settle onto glass coverslips coated either with anti-CD3, anti-CD28 or both and fixed 5 min of stimulation. The images of E-Syt2, PKCθ and TCT staining were taken by confocal microscopy.

T1 sequence (Q9Y6K9 whole entry): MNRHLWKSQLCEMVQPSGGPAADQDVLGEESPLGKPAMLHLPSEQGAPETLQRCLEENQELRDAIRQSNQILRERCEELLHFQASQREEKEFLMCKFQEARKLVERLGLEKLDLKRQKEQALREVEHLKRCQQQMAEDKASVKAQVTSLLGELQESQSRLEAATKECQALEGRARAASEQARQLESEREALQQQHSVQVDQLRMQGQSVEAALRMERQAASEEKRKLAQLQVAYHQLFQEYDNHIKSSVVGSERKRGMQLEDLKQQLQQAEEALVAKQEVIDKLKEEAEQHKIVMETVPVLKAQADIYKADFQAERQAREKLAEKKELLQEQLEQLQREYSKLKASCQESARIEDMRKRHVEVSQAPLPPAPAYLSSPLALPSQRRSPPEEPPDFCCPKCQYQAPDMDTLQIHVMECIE

binding result: no binding
B1: GST fused to the Vav SH3 domain (GST-SH3v) (other, UniProt P15498 782-845, looked up)
chain: KYFGTAKARYDFCARDRSELSLKEGDIIKILNKKGQQGWWRGEIYGRVGWFPANYVEEDYSEYC
notes: domain: SH3 (C-ter Vav); also called pGEX-4T-SH3 (C-ter Vav); not shown: glutathione S-transferase of vector pGEX-4T

Source: patent US20180066318A1 (INSTITUT PASTEUR, published 2018)
